Here are results for 1 protein from article PMC3465764.

Substrate in this data set: NC(=O)c1cnccn1
Kind of data set: steady-state enzyme kinetics. Type of data set: biochemical, Acinetobacter baumannii.

B1: AbPncA (Acinetobacter baumannii ATCC 19606 = CIP 70.34 = JCM 6841) (protein)
chain: MKMNKQPQNSALVVVDVQNGFTPGGNLAVADADTIIPTINQLAGCFENVVLTQDWHPDNHISFAANHPGKQPFETIELDYGSQVLWPKHCIQGTHDAEFHPDLNIPTAQLIIRKGFHAHIDSYSAFMEADHTTMTGLTGYLKERGIDTVYVVGIATDFCVAWTALDAVKQGFKTLVIEDACKGIDLNGSLEQAWQTMQQQGVVRIQSTDLLNEC
As to B1, the Km was determined as 106.9 µM.

As a reminder, the Km is the concentration of substrate that gives half-maximal velocity.
